Laboratory results taken from US7838495B2, “Compositions and methods of use of EPB1, and ErbB3 binding protein” (University of Maryland, Baltimore, priority 2007, dated 2010).

How the values were obtained:
Format in all cases: cell-based, human
C81 cells [1] = assay: Sensitivity of C81 transfectants to 4 Gy gamma radiation; conditions: C81 EPB1 transfectants, 72 h after exposure (vector less than 10%)
From the text: Restoration or increase of EPB1 expression can sensitize the androgen independent prostate cancer C81 cells to radiation. Radiotherapy is another important treatment for locally and regionally advanced prostate cancer. However, resistance of prostate cancer cells to radiation limits its efficacy and dose escalation is obviously not the solution to this common phenomenon. Bcl-2 overexpression may be the same critical molecule underlying the resistance to radiotherapy as to the chemotherapy in prostate cancer. 4 Gy gamma radiation killed 100% of EPB1 transfectants while less than 10% of C81 vector transfectants were dead in 72 h after exposure to the same 4 Gy gamma irradiation. […] Without being bound by theory, it is contemplated that the increase in sensitivity to radiation might be due to the decreased levels of Bcl-2 in EPB1 transfectants given the importance of Bcl-2 function in resistance to radiation.

Androgen Regulated Genes = assay: Microarray analysis of EBP1 and vector transfected C81 cells; conditions: EBP1 transfected C81 cells vs vector control
Description: (§1) Microarray Analysis and Bioinformatics. RNA was prepared using the Trizol Reagent as previously described (8). Microarray processing and data analysis was performed at Genome Explorations (Nashville, Tenn.). U133A oligonucleotide arrays (Affymetrix) containing ˜33,000 full length annotated genes together with additional probe sets designed to represent EST sequences were used for the analysis. Only genes with a minimum expression level of 500 were included in this analysis. […] Oncomine analyses were performed by using Oncomine 3.0 (www.oncomine.org). Real Time Quantitative Reverse-Transcription PCR. Both cell culture samples and a commercial panel of cDNAs from normal prostate and prostate tumors (TissueScan, Origene, Rockville, Md.) were examined. The method of Nakanishi et al. (15) was used as previously described. Real-time quantitative RT-PCR was performed on the LightCycler® (Roche) platform. The following forward and reverse primers were selected using Primer Express software and synthesized by the Core Laboratory of University of Maryland School of Medicine: Ebp1, sense: 5′-GCA CGC CAA TAG AAG G-3′ (SEQ ID NO: 16) and antisense: 5′-GTA AAC GGC ATG GCA TC-3′ (SEQ ID NO: 17) kallikrein-2 sense: 5′-CAT CCA GTC TCG GAT TG-3′ (SEQ ID NO: 18) and antisense: 5′-CTC ATA TTG TAG AGC GGG T-3′ (SEQ ID NO: 19), TSPY, sense: 5′-CAGGGCTTCTCATTCCACTC-3′ (SEQ ID NO: 20) and antisense: 5′-CCATCATATTCAACTCAACAA CTGG-3′ (16; SEQ ID NO: 21), AGR2, sense: 5′-ATTGGCAGAGCAGTTTCTCC-3′ (SEQ ID NO: 22) and antisense, 5′-GAGCTGTATCTGCAGGTTCGT (17; SEQ ID NO: 23) 13-Actin, sense: 5′-GCTATCCAGGCTGTGCTATC-3′ (SEQ ID NO: 24) and antisense 5′-TGT CAC GCA CGA TTT CC-3′ (SEQ ID NO: 25). A SYBR®Green PCR Kit was used as per the manufacturer's instructions (Applied Biosystems, Foster City, Calif.) and the analyses were performed in duplicate or triplicate.

C81 cells [2] = assay: RT-PCR, Western blot and ELISA in C81 EBP1 transfectants
Description: FIG. 5A-D. Expression of genes associated with androgen independence is decreased in C81 EBP1 transfectants. A. Lysates of logarithmically growing clones of C81 EBP1 transfectants (E1,2) or vector controls (V 1,2) were resolved by SDS-PAGE and immunoblotted for AR, BCL-2, BAD, FLAG, EBP1 and ACTIN as indicated. Representative of 3 experiments. B. Secreted PSA as measured by ELISA. EBP1 and vector control cells were plated at 1×10^6 cells/100 mm dish in complete media. Forty-eight hours later, conditioned media were collected and frozen. PSA activity was assessed by ELISA. Levels of PSA were adjusted to total cell number. Data is representative of 2 experiments. C. Validation of mRNA levels in EBP1 transfectants. Quantitative RT PCR was performed for the KALLIKREIN-2, AGR2 and TSPY genes in EBP1 and vector transfectants. The relative levels of all test mRNAs were normalized to β-ACTIN. Results are representative of 3 experiments using different sets of cells. D. Expression of AGR2 protein in vector and EBP1 C81 transfectants. Lysates of vector control (V) or EBP1 (E) transfected cells grown in complete media were resolved by SDS-PAGE and analyzed by Western blotting with antibody to AGR2.
as §1
Measurement of PSA levels. Serum PSA levels were determined using a PSA ELISA kit from DSL, Inc (Webster, Tex.) as previously described (9).
Western Blot Analysis. Western blot analysis was performed as previously described (19). The Ebp1 antibody was from Upstate (Lake Placid, N.Y.), the polyclonal antibody to actin from Sigma, the AKT and phospho AKT antibodies from Cell Signaling (Beverly, Mass.) and the AGR2 antibody was previously described (20) Cell Growth Assays Cell growth measurement in complete media was performed as described using a hemocytometer (21). For soft agar growth assays, increasing concentrations of cells (as indicated) were plated in 35 mm Petri dishes in 0.3% agar in complete media and colonies were counted after 10 days of incubation (21). […]

[3] = C81 EBP1 transfectants vs vector controls, real time RT-PCR
[4] = C81 clones transfected with FLAG-tagged EBP1, Western blot

B1: EBP1: ErbB3 binding protein (SEQ ID NO: 2), AR corepressor, here ectopically expressed in cancer cells by stable transfection of an expression plasmid (protein, listed as Homo sapiens)
chain: MSGEDEQQEQTIAEDLVVTKYKMGGDIANRVLRSLVEASSSGVSVLSLCEKGDAMIMEETGKIFKKEKEMKKGIAFPTSISVNNCVCHFSPLKSDQDYILKEGDLVKIDLGVHVDGFIANVAHTFVVDVAQGTQVTGRKADVIKAAHLCAEAALRLVKPGNQNTQVTEAWNKVAHSFNCTPIEGMLSHQLKQHVIDGEKTIIQNPTDQQKKDHEKAEFEVHEVYAVDVLVSSGEGKAKDAGQRTTIYKRDPSKQYGLKMKTSRAFFSEVERRFDAMPFTLRAFEDEKKARMGVVECAKHELLQPFNVLYEKEGEFVAQFKFTVLLMPNGPMRITSGPFEPDLYKSEMEVQDAELKALLQSSASRKTQKKKKKKASKTAENATSGETLEENEAGD
modifications: FLAG tag
- cells killed by 4 Gy gamma radiation (C81 cells [1]): 100%
- Fold Decrease, AGR2 (Androgen Regulated Genes): 7.1
- Fold Decrease, Androgen regulated serine protease TMPRSS2 (Androgen Regulated Genes): 4.0
- Fold Decrease, Prostate Cancer overexpressed POV (Androgen Regulated Genes): 5
- Fold Decrease, Prostate Differentiation Factor mRNA (Androgen Regulated Genes): 5.4
- Fold Decrease, Prostate Specific Antigen (Androgen Regulated Genes): 5.5
- Fold Decrease, Prostatic Kallikrein 2 (Androgen Regulated Genes): 5.4
- Fold Decrease, TSPY (Androgen Regulated Genes): 9.5
- AGR2 protein (C81 cells [2]; C81 EBP1 transfectants in complete media, Western blot): decreased
- decrease of secreted PSA protein levels (C81 cells [2]; C81 EBP1 transfectants vs vector controls, ELISA): 60%
- AGR2 mRNA downregulation (C81 cells [2]; [3]): over 90%
- Kallikrein-2 mRNA downregulation (C81 cells [2]; [3]): over 80%
- TSPY mRNA downregulation (C81 cells [2]; C81 EBP1 transfectants, real time RT-PCR): over 90%
- AR protein level (C81 cells [2]; [4]): markedly reduced
- BAD protein level (C81 cells [2]; [4]): remained the same as the vector controls
- Bcl2 protein level (C81 cells [2]; [4]): markedly reduced
